Changes are numbered by the printed parent chain. Numbers in names are those of the source. Blank lines part the entries; values can stand above or below the binder they belong to.
What was measured:
[1] = molecular target: T1, scCD94/NKG2A-mFc, Fc-fusion protein of murine IgG1 fused at the C-terminus with a single-chain construct of … (mouse; human, UniProt Q13241 32-179); experiment: SPR Biacore T100, sc-NKG2A-CD94-mFc immobilized, antibody 1.25-10 nM
[2] = molecular target: T1, scCD94/NKG2A-mFc, Fc-fusion protein of …; experiment: SPR Biacore T100, sc-NKG2A-CD94-mFc immobilized, binding level (RU) divided by that of chimZ199
[3] = molecular target: T2, human CD94/NKG2A receptor on cells (Ba/F3 cells over-expressing CD94/NKG2A; NKL cells) (human, UniProt Q13241 1-179); experiment: flow cytometry on Ba/F3-CD94/NKG2A cells
T2 construct: whole, on cells; also called Ba/F3-CD94/NKG2A
T2 sequence (chain, as listed by the source, chain 1 of 2): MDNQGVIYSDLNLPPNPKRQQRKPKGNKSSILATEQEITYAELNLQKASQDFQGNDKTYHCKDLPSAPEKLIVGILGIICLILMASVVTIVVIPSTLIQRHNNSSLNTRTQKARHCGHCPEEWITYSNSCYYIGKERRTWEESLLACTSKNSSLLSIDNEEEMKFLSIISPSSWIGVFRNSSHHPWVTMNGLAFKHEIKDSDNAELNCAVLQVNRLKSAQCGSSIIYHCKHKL
T2 sequence (Q13241 whole entry, chain 2 of 2): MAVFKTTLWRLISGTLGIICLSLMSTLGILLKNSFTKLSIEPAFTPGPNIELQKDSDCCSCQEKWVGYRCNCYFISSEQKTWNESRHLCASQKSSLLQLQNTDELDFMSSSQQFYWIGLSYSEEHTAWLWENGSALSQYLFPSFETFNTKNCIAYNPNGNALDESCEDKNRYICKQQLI

[4] = molecular target: T1, scCD94/NKG2A-mFc, Fc-fusion protein of …; experiment: SPR Biacore T100, sc-NKG2A-CD94-mFc immobilized

T1 sequence (Q13241 other isoform, or with tags, fused parts or gaps): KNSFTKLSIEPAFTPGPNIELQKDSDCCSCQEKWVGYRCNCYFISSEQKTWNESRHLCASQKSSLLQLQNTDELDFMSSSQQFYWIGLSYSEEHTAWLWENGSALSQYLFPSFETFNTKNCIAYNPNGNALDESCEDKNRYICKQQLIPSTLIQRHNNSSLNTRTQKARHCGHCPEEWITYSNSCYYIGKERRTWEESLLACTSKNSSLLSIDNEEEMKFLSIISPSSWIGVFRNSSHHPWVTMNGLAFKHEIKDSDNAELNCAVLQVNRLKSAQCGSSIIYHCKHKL

- Kd [1]: 24.3 pM
- koff [1]: 4.17e-05 s⁻¹
- kon [1]: 1.72e+06 M⁻¹ s⁻¹
B1: chimeric Z199 with a human IgG4(S241P) portion (antibody, V domains shown)
VH: EVQLVESGGGLVKPGGSLKLSCAASGFTFSSYAMSWVRQSPEKRLEWVAEISSGGSYTYYPDTVTGRFTISRDNAKNTLYLEISSLRSEDTAMYYCTRHGDYPRFFDVWGAGTTVTVSS
VL: QIVLTQSPALMSASPGEKVTMTCSASSSVSYIYWYQQKPRSSPKPWIYLTSNLASGVPARFSGSGSGTSYSLTISSMEAEDAATYYCQQWSGNPYTFGGGTKLEIKR
notes: also called chimZ199; ChimZ199

- relative binding against chimZ199 [2]: ~40%
B2: chimZ199 light-chain alanine mutant Y32A (antibody, human IgG4, name in Kabat numbering, V domains shown)
VH: B1 VH
VL: B1 VL with Y31A
notes: Ala-scan mutant made on chimZ199 (human IgG4 constant domains); also called LC: Y32A

- relative binding against chimZ199 [2]: ~40%
B3: chimZ199 heavy-chain alanine mutant Y98A (antibody, human IgG4, name in Kabat numbering, V domains shown)
VH: B1 VH with Y102A
VL: B1 VL
notes: Ala-scan mutant made on chimZ199 (human IgG4 constant domains); Kabat numbering; also called HC: Y98A

- relative binding against chimZ199 [2]: ~40%
B4: chimZ199 heavy-chain alanine mutant Y56A (antibody, human IgG4, name in Kabat numbering, V domains shown)
VH: B1 VH with Y57A
VL: B1 VL
notes: Ala-scan mutant made on chimZ199 (human IgG4 constant domains); Kabat numbering; also called HC: Y56A

- relative binding against chimZ199 [2]: ~40%
B5: chimZ199 light-chain alanine mutant L50A (antibody, human IgG4, name in Kabat numbering, V domains shown)
VH: B1 VH
VL: B1 VL with L49A
notes: Ala-scan mutant made on chimZ199 (human IgG4 constant domains); also called LC: L50A

- relative binding against chimZ199 [2]: ~40%
B6: chimZ199 heavy-chain alanine mutant P99A (antibody, human IgG4, name in Kabat numbering, V domains shown)
VH: B1 VH with P103A
VL: B1 VL
notes: Ala-scan mutant made on chimZ199 (human IgG4 constant domains); Kabat numbering; also called HC: P99A

- relative binding against chimZ199 [2]: ~40%
B7: chimZ199 light-chain alanine mutant P95A (antibody, human IgG4, name in Kabat numbering, V domains shown)
VH: B1 VH
VL: B1 VL with P94A
notes: Ala-scan mutant made on chimZ199 (human IgG4 constant domains); also called LC: P95A

- binding result [3]: binds
B8: murine anti-NKG2A antibody Z199 (antibody, V domains shown)
VH: B1 VH
VL: B1 VL
notes: Mouse monoclonal antibody (Beckman Coulter IM2750) and its recombinant form recZ199 made in HEK293 cells; also called recZ199; Z199 (rec)

- fold difference of affinity against chimeric Z199 [4]: 2.7 fold
- Kd [1]: 72 pM
- koff [1]: 0.000122 s⁻¹
- kon [1]: 1.7e+06 M⁻¹ s⁻¹
B9: HumZ199 (LC: L46P) (antibody, name in Kabat numbering, V domains shown)
VH: EVQLVESGGGLVKPGGSLRLSCAASGFTFSSYAMSWVRQAPGKGLEWVSEISSGGSYTYYADSVKGRFTISRDNAKNSLYLQMNSLRAEDTAVYYCARHGDYPRFFDVWGQGTTVTVSS
VL: EIVLTQSPATLSLSPGERATLSCSASSSVSSYIYWYQQKPGQAPRPLIYLTSNLASGIPARFSGSGSGTDFTLTISSLEPEDFAVYYCQQWSGNPYTFGQGTKLEIK
notes: also called huZ199(LC:L46P); humZ199 with single back mutation L46P in the light chain

Reference: patent US20110052606A1 (Novo Nordisk, published 2011)
